Measurements: publication PMC9922296, “Mechanistic insights into RNA surveillance by the canonical poly(A) polymerase Pla1 of the MTREC complex” (Nature Communications, 2023)
“And” between values parts separate entries of the source, which are not always exact repeats. Identical values can stand only once. Each block holds one molecule with its values, some of them ahead of it. No end group written: not given here.

Key:
[1] = target: C-terminal RRM domain of Pla1 (Pla1RRM, residues 352-566), purified (S. pombe) (UniProt Q10295); experiment: ITC; MicroCal PEAQ-ITC, 25 °C, 20 mM HEPES pH 7.5, 150 mM NaCl, 2 mM BME; 40-50 µM protein in the cell, 400-500 µM ligand in the syringe; one-binding site model
[2] = target: Biotinylated Iss1 residues 30-76 (S. pombe); experiment: BLI; Octet RED96e, 25 °C, 20 mM HEPES pH 7.5, 150 mM NaCl, 2 mM BME, 0.01% Tween-20; biotinylated Red1_(288-345) or Iss1_(30-76) on streptavidin biosensors, 2-fold serial dilution of Pla1FL; global 1:1 fit; apparent
[3] = target: T1, C-terminal RRM domain of Pla1 (Pla1RRM, residues 352-566), purified (S. pombe, UniProt Q10295 352-566); experiment: ITC; MicroCal PEAQ-ITC, 25 °C, 20 mM HEPES pH 7.5, 150 mM NaCl, 2 mM BME; 40-50 µM protein in the cell, 400-500 µM ligand in the syringe; one-binding site model; conditions: both partners purified
T1 construct: canonical poly(A) polymerase Pla1, S. pombe, C-terminal RRM domain, residues 352-566; also called Pla1 CTD; source: E. coli BL21 (DE3) Rosetta2, purified (His-Trap, TEV cleavage, Resource Q, Superdex 200); not shown: His6, N-terminal, cleaved
T1 sequence (looked up): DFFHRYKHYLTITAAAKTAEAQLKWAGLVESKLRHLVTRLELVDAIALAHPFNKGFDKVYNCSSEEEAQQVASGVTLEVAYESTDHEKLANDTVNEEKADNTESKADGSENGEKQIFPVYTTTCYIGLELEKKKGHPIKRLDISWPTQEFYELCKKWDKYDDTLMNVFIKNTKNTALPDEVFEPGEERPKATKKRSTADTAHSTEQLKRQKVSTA

[4] = target: T2, Red1 residues 288-345 with Val313 mutated to arginine (S. pombe, UniProt Q9UTR8 288-345, Val313 to an arginine residue); experiment: ITC
T2 sequence: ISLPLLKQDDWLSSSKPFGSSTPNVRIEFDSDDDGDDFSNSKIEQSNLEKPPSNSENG

[5] = target: T3, Pla1RRM (C-terminal RRM domain of Pla1, residues 352-566) (S. pombe, UniProt Q10295 352-566); experiment: ITC; Red1 or Iss1 construct in the syringe (400-500 µM) titrated into Pla1RRM (wild type or mutant) in the cell (40-50 µM); 25 °C; 20 mM HEPES pH 7.5, 150 mM NaCl, 2 mM BME; one-binding site model; each independent measurement listed; conditions: both partners purified
T3 construct: Pla1, canonical poly(A) polymerase, S. pombe, C-terminal RRM domain, residues 352-566; also called Pla1 RRM domain; Pla1 CTD; source: E. coli BL21 (DE3) Rosetta2, purified (His-Trap, TEV cleavage, Resource Q, Superdex 200); not shown: His6, N-terminal, cleaved
T3 sequence (looked up): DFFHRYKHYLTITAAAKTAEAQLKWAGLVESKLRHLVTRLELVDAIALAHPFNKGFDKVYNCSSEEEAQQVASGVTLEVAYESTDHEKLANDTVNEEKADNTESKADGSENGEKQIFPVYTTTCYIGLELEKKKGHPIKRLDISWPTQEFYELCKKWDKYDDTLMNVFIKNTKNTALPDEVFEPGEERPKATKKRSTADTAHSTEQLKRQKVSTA

[6] = target: T3, Pla1RRM (C-terminal RRM domain of Pla1, …); experiment: as above; conditions: both partners purified; remark: listed apart in the source
[7] = target: T4, Pla1FL (full-length Pla1, residues 1-566) (S. pombe, UniProt Q10295 1-566); experiment: BLI; biotinylated Red1 288-345 or Iss1 30-76 immobilised on streptavidin biosensors, 2-fold serial dilution of Pla1FL as analyte; 25 °C; 20 mM HEPES pH 7.5, 150 mM NaCl, 2 mM BME, 0.01% Tween-20; global 1:1 fit; conditions: both partners purified
T4 construct: Pla1, canonical poly(A) polymerase, S. pombe, residues 1-566; the His6 tag is non-cleavable; source: E. coli BL21 (DE3) Rosetta2, purified (His-Trap, Resource Q, Superdex 200); not shown: His6, N-terminal, kept
T4 sequence (looked up): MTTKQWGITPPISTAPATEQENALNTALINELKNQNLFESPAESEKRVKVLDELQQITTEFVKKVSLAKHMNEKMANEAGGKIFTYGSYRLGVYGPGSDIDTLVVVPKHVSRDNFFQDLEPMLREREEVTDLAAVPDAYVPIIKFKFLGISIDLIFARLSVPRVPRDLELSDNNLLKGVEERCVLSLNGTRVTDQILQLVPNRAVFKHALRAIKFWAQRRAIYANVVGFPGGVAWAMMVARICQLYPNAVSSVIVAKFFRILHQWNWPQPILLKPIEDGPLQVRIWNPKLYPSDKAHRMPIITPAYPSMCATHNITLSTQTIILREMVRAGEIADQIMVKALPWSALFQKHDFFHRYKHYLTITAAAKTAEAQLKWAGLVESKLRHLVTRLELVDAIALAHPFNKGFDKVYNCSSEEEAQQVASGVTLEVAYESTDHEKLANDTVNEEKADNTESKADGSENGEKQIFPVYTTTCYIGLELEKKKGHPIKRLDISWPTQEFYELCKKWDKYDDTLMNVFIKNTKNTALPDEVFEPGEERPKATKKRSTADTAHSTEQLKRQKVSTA

[8] = target: T5, Full-length Pla1 (Pla1FL, residues 1-566) with non-cleavable N-terminal His6, purified (S. pombe, UniProt Q10295 1-566); experiment: BLI; Octet RED96e, 25 °C, 20 mM HEPES pH 7.5, 150 mM NaCl, 2 mM BME, 0.01% Tween-20; biotinylated Red1_(288-345) or Iss1_(30-76) on streptavidin biosensors, 2-fold serial dilution of Pla1FL; global 1:1 fit; apparent; conditions: both partners purified
T5 construct: canonical poly(A) polymerase Pla1, S. pombe, full length, residues 1-566; source: E. coli BL21 (DE3) Rosetta2, purified (His-Trap, Resource Q, Superdex 200); not shown: His6, N-terminal, kept
T5 sequence (looked up): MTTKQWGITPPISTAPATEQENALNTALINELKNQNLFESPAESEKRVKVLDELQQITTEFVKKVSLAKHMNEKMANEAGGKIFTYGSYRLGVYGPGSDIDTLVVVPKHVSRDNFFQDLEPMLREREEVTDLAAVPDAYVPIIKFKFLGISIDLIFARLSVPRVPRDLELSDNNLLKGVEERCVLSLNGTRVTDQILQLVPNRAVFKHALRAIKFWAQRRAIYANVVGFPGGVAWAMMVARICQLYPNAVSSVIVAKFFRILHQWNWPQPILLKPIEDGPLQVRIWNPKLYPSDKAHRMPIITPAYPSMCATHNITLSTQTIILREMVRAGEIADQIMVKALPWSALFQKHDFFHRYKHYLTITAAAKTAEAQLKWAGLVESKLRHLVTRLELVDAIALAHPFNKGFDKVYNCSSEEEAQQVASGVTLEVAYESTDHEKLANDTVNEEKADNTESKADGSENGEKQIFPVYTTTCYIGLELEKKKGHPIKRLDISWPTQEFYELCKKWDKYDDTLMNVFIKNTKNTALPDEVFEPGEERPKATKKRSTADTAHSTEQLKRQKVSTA

Molecule: Iss1 residues 30-76, purified (domain or fragment)
Kd [1]: 2500 nM

B1: Full-length Pla1 (Pla1FL, residues 1-566) with non-cleavable N-terminal His6, purified (enzyme)
chain: MTTKQWGITPPISTAPATEQENALNTALINELKNQNLFESPAESEKRVKVLDELQQITTEFVKKVSLAKHMNEKMANEAGGKIFTYGSYRLGVYGPGSDIDTLVVVPKHVSRDNFFQDLEPMLREREEVTDLAAVPDAYVPIIKFKFLGISIDLIFARLSVPRVPRDLELSDNNLLKGVEERCVLSLNGTRVTDQILQLVPNRAVFKHALRAIKFWAQRRAIYANVVGFPGGVAWAMMVARICQLYPNAVSSVIVAKFFRILHQWNWPQPILLKPIEDGPLQVRIWNPKLYPSDKAHRMPIITPAYPSMCATHNITLSTQTIILREMVRAGEIADQIMVKALPWSALFQKHDFFHRYKHYLTITAAAKTAEAQLKWAGLVESKLRHLVTRLELVDAIALAHPFNKGFDKVYNCSSEEEAQQVASGVTLEVAYESTDHEKLANDTVNEEKADNTESKADGSENGEKQIFPVYTTTCYIGLELEKKKGHPIKRLDISWPTQEFYELCKKWDKYDDTLMNVFIKNTKNTALPDEVFEPGEERPKATKKRSTADTAHSTEQLKRQKVSTA
Kd [2]: 115 nM | koff [2]: 0.024 s⁻¹ | kon [2]: 210000 M⁻¹ s⁻¹

B2: Red1 residues 288-345 with Val313 mutated to arginine (domain or fragment, S. pombe, UniProt Q9UTR8 288-345, looked up)
chain: ISLPLLKQDDWLSSSKPFGSSTPNVRIEFDSDDDGDDFSNSKIEQSNLEKPPSNSENG
notes: also called V313R; source: E. coli BL21 (DE3), purified; not shown: GB1, N-terminal, cleaved; His6, C-terminal, kept
fold loss in affinity against wild-type Red1_(288-345) [3]: ~13 fold

B6: Red1 288-345 V313R (domain or fragment, S. pombe, UniProt Q9UTR8 288-345, looked up)
chain: ISLPLLKQDDWLSSSKPFGSSTPNVRIEFDSDDDGDDFSNSKIEQSNLEKPPSNSENG
notes: source: E. coli BL21 (DE3), purified (His-Trap, TEV cleavage, second IMAC, Superdex 75); not shown: GB1, N-terminal, cleaved; His6, C-terminal, kept
Kd [6]: 15.8 µM and 19.9 µM | stoichiometry N [6]: 1.13 and 0.96

B7: Red1 288-322 (domain or fragment, S. pombe)
chain: ISLPLLKQDDWLSSSKPFGSSTPNVVIEFDSDDDG
notes: as for B6
Kd [6]: 7.3 µM and 8.4 µM | stoichiometry N [6]: 1.31 and 1.3

B9: biotinylated Iss1 30-76 (domain or fragment, S. pombe)
chain: VSNAKSPEQASEESDDSDIEFIIETKPGERAEPLGGSIATLGSTRPS
modifications: also: biotin (EZ-Link NHS-PEG4-Biotin), sites not given here
notes: Iss1, S. pombe, residues 30-76; same protein as Dm12, biotinylated for immobilisation on streptavidin biosensors; also called Iss1_(30-76), biotin-labelled; source: E. coli BL21 (DE3) Rosetta2, purified, biotinylated with EZ-Link NHS-PEG4-Biotin; not shown: His-Thioredoxin, N-terminal, cleaved
koff [7]: 0.0242 s⁻¹

B10: Biotinylated Red1 residues 288-345 (domain or fragment, S. pombe, UniProt Q9UTR8 288-345, looked up)
chain: ISLPLLKQDDWLSSSKPFGSSTPNVVIEFDSDDDGDDFSNSKIEQSNLEKPPSNSENG
modifications: also: biotin (EZ-Link NHS-PEG4-Biotin), site not given here
notes: source: E. coli BL21 (DE3), purified, biotinylated; not shown: GB1, N-terminal, cleaved; His6, C-terminal, kept
Kd [8]: 59.2 nM | koff [8]: 0.016 s⁻¹ | kon [8]: 280000 M⁻¹ s⁻¹

The remaining lines, values ahead:

Kd [4]: 17.9 µM
B3: C-terminal RRM domain of Pla1 (Pla1RRM, residues 352-566), purified (domain or fragment)
chain: DFFHRYKHYLTITAAAKTAEAQLKWAGLVESKLRHLVTRLELVDAIALAHPFNKGFDKVYNCSSEEEAQQVASGVTLEVAYESTDHEKLANDTVNEEKADNTESKADGSENGEKQIFPVYTTTCYIGLELEKKKGHPIKRLDISWPTQEFYELCKKWDKYDDTLMNVFIKNTKNTALPDEVFEPGEERPKATKKRSTADTAHSTEQLKRQKVSTA

Kd [5]: 1100 ± 250 nM | Kd [6]: 0.77 µM and 1.53 µM | stoichiometry N [6]: 0.99 and 1.05
B4: Red1 288-345 N311A (domain or fragment, S. pombe, UniProt Q9UTR8 288-345, looked up)
chain: ISLPLLKQDDWLSSSKPFGSSTPAVVIEFDSDDDGDDFSNSKIEQSNLEKPPSNSENG
notes: also called Red1N311A; source: E. coli BL21 (DE3), purified (His-Trap, TEV cleavage, second IMAC, Superdex 75); not shown: GB1, N-terminal, cleaved; His6, C-terminal, kept

Kd [5]: 1200 ± 300 nM | Kd [6]: 1.01 µM and 1.45 µM | stoichiometry N [6]: 1.04 and 1.05
B5: Red1 288-345 S308A (domain or fragment, S. pombe, UniProt Q9UTR8 288-345, looked up)
chain: ISLPLLKQDDWLSSSKPFGSATPNVVIEFDSDDDGDDFSNSKIEQSNLEKPPSNSENG
notes: also called Red1S308A; source: E. coli BL21 (DE3), purified (His-Trap, TEV cleavage, second IMAC, Superdex 75); not shown: GB1, N-terminal, cleaved; His6, C-terminal, kept

koff [7]: 0.0163 s⁻¹ | kon [7]: 275000 M⁻¹ s⁻¹
B8: biotinylated Red1 288-345 (domain or fragment, S. pombe)
chain: ISLPLLKQDDWLSSSKPFGSSTPNVVIEFDSDDDGDDFSNSKIEQSNLEKPPSNSENG
modifications: also: biotin (EZ-Link NHS-PEG4-Biotin), sites not given here
notes: same protein as Dm2, biotinylated for immobilisation on streptavidin biosensors; source: E. coli BL21 (DE3), purified, biotinylated with EZ-Link NHS-PEG4-Biotin; not shown: GB1, N-terminal, cleaved; His6, C-terminal, kept

Kd [3]: 7.9 µM
B11: Red1 residues 288-322, purified (domain or fragment, S. pombe, UniProt Q9UTR8 288-322, looked up)
chain: ISLPLLKQDDWLSSSKPFGSSTPNVVIEFDSDDDG
notes: as for B6
